Numbering of substitutions follows the chain as printed. Each block holds one binder with its values, some of them ahead of it.
Legend:
[1] = molecular target: T1, human GPVI extracellular region-human Fc fusion protein (hGPVI-hFc) (human); test: SPR BIACORE 3000 as in Example 5
T1 construct: Expressed in COS-1, purified on Protein A; also called GPVI-HHH-hFc; hGPVIHHH-hFc

[2] = molecular target: T1, human GPVI extracellular region-human …; test: SPR BIACORE 3000, hGPVI-hFc on CM5 chip, 0-800 nM, bivalent analyte fit
Experimental: (§1) Dissociation constant for F1232-37-2 (whole antibody) prepared in EXAMPLE 2, and F(ab′)2 and Fab prepared in 22-1 and 21-2 was measured with Protein Interaction Analyzer BIACORE® 3000 (BIACORE). That is, hGPVI-hFc prepared in EXAMPLE 1 was coupled to sensorchip CM5 (BIACORE) according to the manual. Then a series of dilution from 0 to 800 nM of each antibody was prepared with HBS-EP buffer (BIACORE) and analyzed with BIACORE® 3000. After completion of antibody binding, chip was regenerated with glycine buffer (pH 1.5) (BIACORE). Regarding the results of whole antibody and F(ab′)₂, evaluation software Bivalent analyte (BIACORE) was used for analysis; 1:1 Binding for Fab analysis. Then the dissociation constant was calculated. As a result, dissociation constant of F1232-37-2 F(ab′)2 and Fab was about 0.7 and 0.6, respectively, when that of whole antibody defined as one.

[3] = molecular target: T1, human GPVI extracellular region-human …; test: SPR BIACORE 3000, hGPVI-hFc on CM5 chip, 0-800 nM, 1:1 binding fit
Experimental: as §1

[4] = molecular target: T1, human GPVI extracellular region-human …; test: binding to antigen of co-expressed chains; antigen construct not named

T1 sequence (chain, as listed by the source limits assumed): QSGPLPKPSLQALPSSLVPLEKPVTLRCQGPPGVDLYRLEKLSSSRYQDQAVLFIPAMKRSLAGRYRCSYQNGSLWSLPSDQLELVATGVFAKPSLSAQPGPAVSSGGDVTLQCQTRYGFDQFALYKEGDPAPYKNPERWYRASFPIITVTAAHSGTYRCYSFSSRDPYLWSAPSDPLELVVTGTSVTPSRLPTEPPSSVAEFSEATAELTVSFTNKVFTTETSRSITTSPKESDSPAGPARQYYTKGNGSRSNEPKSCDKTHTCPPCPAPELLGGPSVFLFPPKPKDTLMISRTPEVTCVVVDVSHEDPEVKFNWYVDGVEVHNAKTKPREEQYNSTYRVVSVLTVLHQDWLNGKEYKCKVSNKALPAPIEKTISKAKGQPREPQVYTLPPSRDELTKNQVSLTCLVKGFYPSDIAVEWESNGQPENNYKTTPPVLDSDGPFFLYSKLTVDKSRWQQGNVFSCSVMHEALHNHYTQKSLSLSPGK

KD (Relative value) [1]: 0.00103 relative to F1232-37-2 = 1
B1: F1249-18-2 (antibody, V domains shown)
VH: QVQLQQPGAELVKPGASVKLSCKASGYTFTSYWMHWLKQRPGQGLEWIGMIHPNSDITNYNEKFKNKATLTVDKSSSTAYMQLSSLTSEDSAVYYCARSGDYYAMDYWGQGTSVTVSS
VL: SIVMTQTPKFLLVSAGDRVTITCKASQSVSNDVAWYQQKPGQSPKLLIYYASNRYTGVPDRFTGSGYGTDFTFTISTVQAEDLAVYFCQQDYSSPPTFGGGTKLEIKR
notes: mouse hybridoma monoclonal antibody

KD (Relative value) [1]: 0.122 relative to F1232-37-2 = 1
B2: F1245-6-2 (antibody, V domains shown)
VH: QVQLQQPGAELVKPGASVKLSCKASGYTFTSYWMHWVKQRPGQGLEWIGMIHPNSGSTNYNEKFKSKATLTVDKSSSTAYMQLSSLTSEDSAVYYCARGGVTPVAYWGQGTLVTVSA
VL: B1 VL with D60Y, P96W
notes: as for B1

KD (Relative value) [1]: 0.00427 relative to F1232-37-2 = 1
B3: F1245-4-1 (antibody, V domains shown)
VH: QVQLQQPGAELVKPGASVKLSCKASGCTFTSYWMHWVKQRPGQGLEWIGMIHPNSDNTNYNEKFKSKATLTVDKSSSTAYMHLSSLTSEDSAVYYCATHYYDYVDYWGQGTTLTVSS
VL: B1 VL with S1N, P96W
notes: as for B1

KD (Relative value) [1]: 1.43 relative to F1232-37-2 = 1
B4: F1245-5-1 (antibody, V domains shown)
VH: B2 VH with T30I, N59H
VL: B1 VL with P96W
notes: as for B1

KD (Relative value) [1]: 0.00285 relative to F1232-37-2 = 1
B5: F1249-5-1 (antibody, V domains shown)
VH: B1 VH with D73A, S99L
VL: B1 VL with A34T
notes: as for B1

dissociation constant relative to whole antibody [2]: ~0.7 relative to whole F1232-37-2 = 1
B6: F1232-37-2 F(ab')2 (other)
VH: VQLQQSGPELVRPGESVKISCKGSGYTFTDYAIHWVKLSHAKSLEWIGVISIYYDDTNYNQKFKGKATMTVDKSSSTAYLELARLTSEDSAIYYCARRRDSSGPYAMDYWGQGTSVTVSS
VL: DIVLTQSPASLAVSLGQRATISCRASESVDSYGNSFMHWYQQKPGQPPKLLIYRASNLESGIPARFSGSGSRTDFTLTINPVEADDVATYYCQQSNEDPYTFGGGTKLEIKRADAA
notes: F(ab')2 made from the mouse antibody with lysyl endopeptidase

dissociation constant relative to whole antibody [3]: ~0.6 relative to whole F1232-37-2 = 1
B7: F1232-37-2 Fab (Fab, V domains shown)
VH: B6 VH
VL: DIVLTQSPASLAVSLGQRATISCRASESVDSYGNSFMHWYQQKPGQPPKLLIYRASNLESGIPARFSGSGSRTDFTLTINPVEADDVATYYCQQSNEDPYTFGGGTKLEIKR
notes: Fab made from the mouse antibody with papain

KD (Relative value) [1]: 0.00298 relative to F1232-37-2 = 1
B8: F1257-3-1 (antibody, V domains shown)
VH: QVTLKESGPGMLQPSKTLSLTCSFSGFSLSTSGMVVSWIRQPSGKSLEWLAAIDWDGDKYYNPSLKSRLTVSKDTSNTQVFLKISSVDIADTATYYCARTPYYGYKEAYYFDYWGQGVKVTVSS
VL: DIQMTQSPASLSASLEEIVTITCKASRAIDDYLSWYQQKPGKSPQLLIYDATSLADGVPSRFSGSRSGTQYSLKISRPQVDDSGIYYCLQSYSTPWTFGGGTKLDLKR
notes: rat hybridoma monoclonal antibody

KD (Relative value) [1]: 0.00293 relative to F1232-37-2 = 1
B9: F1245-7-1 (antibody, V domains shown)
VH: QVQLQQPGAELVKPGASVKLSCKASGYTFTSYWMHWVKQRPGQGLEWIGMIHPNSGSTNYNEKFKSKATLTVDKSSSTAYMQLSSLTSEDSAVYYCASPVTAVVEYYFDYWGQGTTLTVSS
VL: SIVMTQTPKFLLVSAGDRVTITCKASQSVSNDVAWYQQKPGQSPKLLIYYASNRYTGVPDRFTGSGYGTDFTFTISTVQAEDLAVYFCQQDYSSLTFGSGTKLEIKR
notes: as for B1

KD (Relative value) [1]: 0.884 relative to F1232-37-2 = 1
B10: F1246-1-1 (antibody, V domains shown)
VH: EVQLVESGGDLVKPGGSLKLSCAASGFTFSSYGMSWVRQTPDKRLEWVATISNGGTYTYYPDSVKGRFTISRDNAKNTLYLQMSSLKSDDTAMYYCGRLRDYYAMDYWGQGTSVTVSS
VL: B7 VL with Y100W
notes: as for B1

KD (Relative value) [1]: 0.00205 relative to F1232-37-2 = 1
B11: F1249-20-1 (antibody, V domains shown)
VH: QVQLQQSGAELVRPGVSVKISCKGSGYTFTDYAMHWVKQSHAKSLEWIGVISTYYGDTSYNQKFKGKATMTVDKSSSTAYMELARLTSEDSAIYYCARAEDYDPWFAYWGQGTLVTVSA
VL: B7 VL with H38Y, N96D, Y100L, G104A, I110L
notes: as for B1

KD (Relative value) [1]: 1.59 relative to F1232-37-2 = 1
B12: F1249-3-2 (antibody, V domains shown)
VH: EVQLVESGGGLVKPGGSLKLSCAASGFTFSSYGMSWVRQTPDKRLEWVATISSGGSYTYYSDSVKGRFTISRDNAKNNLYLQLSSLKSQDTAIYYCARDSGYFDYWGQGTTLTVSS
VL: B7 VL with D1N, R54L, I62V, N80D, V87A, S95N, Y100R
notes: as for B1

KD (Relative value) [1]: 0.00821 relative to F1232-37-2 = 1
B13: F1249-24-1 (antibody, V domains shown)
VH: B11 VH
VL: B7 VL with N96D, Y100L, G104A, I110L
notes: as for B1

KD (Relative value) [1]: 0.347 relative to F1232-37-2 = 1
B14: F1249-30-1 (antibody, V domains shown)
VH: B11 VH with T69A, E89D
VL: B7 VL with N96D, Y100L, G104A, I110L
notes: as for B1

binding result [4]: binds
B15: humanized F1232-37-2: Eu-HC with REI-KA (antibody, human IgG4, V domains shown)
VH: QVQLVQSGAEVKKPGSSVKVSCKASGGTFSDYAIHWVRQAPGQGLEWIGVISIYYDDTNYNQKFKGKATITADESTNTAYMELSSLRSEDTAIYYCARRRDSSGPYAMDYWGQGTLVTVSS
VL: DIQMTQSPSSLSASVGDRVTITCRASESVDSYGNSFMHWYQQKPGKAPKLLIYRASNLESGVPSRFSGSGSGTDFTFTISSLQPEDIATYYCQQSNEDPYTFGQGTKVEIKR
notes: human IgG4 heavy and kappa light constant regions

binding result [4]: binds
B16: humanized F1232-37-2: Eu-HC with Eu-KA (antibody, human IgG4, V domains shown)
VH: B15 VH
VL: B15 VL with S10T, I52M, S67I, D74E, F77L, E85D, I87F, I110V
notes: as for B15

KD (Relative value) [1]: 2.06 relative to F1232-37-2 = 1
B17: F1249-22-1 (antibody, V domains shown)
VH: QVQLQQPGAELVKPGASVKLSCKASGYTFTSYWMQWVKERPGQGLEWIGEIDPSDSYTNYNQKFKGKATLTVDTSSSTACMQLSSLTSEDSAVYYCARGAITTATLDYWGQGTTLTVSS
VL: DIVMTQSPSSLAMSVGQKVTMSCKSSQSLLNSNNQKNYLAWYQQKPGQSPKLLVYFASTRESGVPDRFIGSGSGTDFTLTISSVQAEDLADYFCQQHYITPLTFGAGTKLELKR
notes: as for B1

KD (Relative value) [1]: 7.9 relative to F1232-37-2 = 1
B18: F1251-1-1 (antibody, V domains shown)
VH: QVNLLQSGAALVKPGASVKLSCKASGYTFTDYYIHWVKQSHGKSLEWIGYINPNSGYTNYNEKFKSKATLTVDKSTNTAYMELSRLTSEDSATYYCTRCNSGYGDWFAYWGQGTLLTVSS
VL: DIQMTQSPPVLSASVGDRVTLSCKASQNINKNLDWYQQKHGEAPKLLIYYTNNLQTDIPSRFSGSGSGTDYTLTISSLQPEDVATFYCYQYNSGPGTFGAGTKLELKR
notes: as for B8

Reference: patent publication US20110217318A1 (MOCHIDA PHARMACEUTICAL, published 2011)
